The data set has as its target cardiac troponin I (cTnI) (human, UniProt P19429 2-210). The experiment in a line: strand displacement.

This is an account of results in PMC8258042.

Chain of cardiac troponin I (cTnI) (P19429 2-210): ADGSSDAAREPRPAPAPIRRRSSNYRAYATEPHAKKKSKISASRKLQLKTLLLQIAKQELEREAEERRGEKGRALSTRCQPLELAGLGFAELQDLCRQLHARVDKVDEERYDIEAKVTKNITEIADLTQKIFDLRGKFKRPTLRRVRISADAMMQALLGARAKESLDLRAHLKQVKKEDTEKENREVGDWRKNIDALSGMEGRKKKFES

B1: Poly-T (ssDNA)
DNA: TTTTTTTTTTTTTTTTTTTTCTCATGCGCTGCCCCTCTTATTTTTTTTTTT
modifications: 3'-NH2
As for B1, the binding result is listed as “no binding”.
